Results from patent US20210403555A1 (JAPANESE FOUNDATION FOR CANCER RESEARCH, published 2021).
Numbering of substitutions follows the chain as printed. Each block holds one binder with its values, some of them ahead of it.

How the values were obtained:
[1] = biological target: T1, Recombinant human podoplanin Fc chimera protein (R&D, 3670-PL) (human, UniProt Q86YL7 23-128); assay: competition ELISA: inhibition of podoplanin-Fc binding to CLEC-2 on solid phase
T1 construct: Bought reagent; not shown: Fc part of the bought chimera (detected with anti-human IgG Fc)
T1 sequence (looked up): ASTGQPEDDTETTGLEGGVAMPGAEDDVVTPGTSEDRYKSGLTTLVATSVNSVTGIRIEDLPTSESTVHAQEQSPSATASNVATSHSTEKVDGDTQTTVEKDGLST
Excerpt: (§1) The culture supernatants collected in Production Examples 1 and 2 were used to measure the inhibitory activity against binding of podoplanin to CLEC-2, following the ELISA protocol described in Patent Document 1.

[2] = biological target: T1, Recombinant human podoplanin Fc chimera …; assay: competition ELISA: inhibition of podoplanin-Fc binding to CLEC-2 on solid phase; positive control
Excerpt: as §1
The mouse antibody PG4D2 (PG4D2) was used as a positive control. The mouse antibody PG4D2 is a monoclonal antibody that is obtained from the NITE P-02071 (PG4D2) hybridoma.

[3] = biological target: T2, Peptide of the human podoplanin PLAG4 domain (WT-hPLAG4 (Genscript, 788349-1)) (human, UniProt Q86YL7 76-89, limits assumed); assay: ELISA, PLAG4 peptide on solid phase, culture supernatant; the reference itself, set as 100%
T2 construct: domain: PLAG4 domain
T2 peptide (looked up): TGIRIEDLPTSEST
Excerpt: The culture supernatants collected in Production Examples 1 and 2 were used to measure the binding activity to the podoplanin PLAG4 domain, following the ELISA protocol described in Patent Document 1. A peptide of the human podoplanin PLAG4 domain (WT-hPLAG4 (Genscript, 788349-1)) as an antigen peptide was immobilized on a solid phase, and a preadsorbed goat biotin-conjugated anti-human IgG Fc antibody (Abcam, ab98618) and β-Gal-conjugated streptavidin (Roche Diagnostics, 11112481001) were used for a detection purpose.
The avidity (antibody titer) of each antibody was expressed relative to that of the mouse-human chimeric antibody chPG4D2, which is set as 100%.

B1: Humanized antibody K4 (antibody, human IgG4 S228P, kappa, V domains shown)
VH: EVQLVESGGGLVQPGGSLRLSCAASGFTFSGFGMLWVRQAPGKGLEWVAYISSVSSRIYYADTVKGRFTISRDNAKNSLYLQMNSLRAEDTAVYYCARESYGPAWFAYWGQGTLVTVSS
VL: DIVMTQSPLSLPVTPGEPASISCRSSQHIVHIDGNTYLEWYLQKPGQSPQLLIYKVSNRFSGVPDRFSGSGSGTDFTLKISRVEAEDVGVYYCFQGSHVPYTFGGGTKVEIKR
IC50 [1]: 0.36 µg/mL

B2: Humanized antibody K5 (antibody, human IgG4 S228P, kappa, V domains shown)
VH: B1 VH with A49S, A75S, S78T
VL: B1 VL
IC50 [1]: 0.364 µg/mL

The remaining lines, values ahead:

IC50 [2]: 0.371 µg/mL
B3: Mouse antibody PG4D2 (antibody, V domains shown)
VH: DVQLVESGGGLVQPGGSRKLSCAASGFTFSGFGMLWVRQAPEKGLEWVAYISSVSSRIYYADTVKGRFTISRDNPKNTLFLQMTSLRSEDTAMYYCARESYGPAWFAYWGQGTLVTVSA
VL: DVLMTQTPLSLPVSLGDQASISCRSSQHIVHIDGNTYLEWYLQQPGQSPKLLIYKVSNRFSGVPDRFSGSGSGTDFTLRISRVEAEDLGVYYCFQGSHVPYTFGGGTKLEMK

Avidity (antibody titer) (%) relative to chPG4D2 [3]: 100%
IC50 [1]: 0.406 µg/mL
B4: Mouse-human chimeric antibody chPG4D2 (antibody, human IgG4 S228P, kappa, V domains shown)
VH: B3 VH
VL: DVLMTQTPLSLPVSLGDQASISCRSSQHIVHIDGNTYLEWYLQQPGQSPKLLIYKVSNRFSGVPDRFSGSGSGTDFTLRISRVEAEDLGVYYCFQGSHVPYTFGGGTKLEMKR
